Laboratory results taken from patent publication US20220049236A1.

Tests used:
[1] = molecular target: LPD displayed on the surface of yeast cells (EBY100) (Saccharomyces cerevisiae; human) (UniProt P32781); experiment: flow cytometry of yeast cells displaying LPD, stained with Atto 633-labelled HSP70; the sample histogram is shifted to the right of the control histogram, whose Median RFU is printed as 26
[2] = molecular target: Heat shock 70 kDa protein 6/7 (human) (UniProt P17066); experiment: IP from HDF supernatant, LFQ mass spectrometry; ratio against Fc control
Nidogen-1 (human) [3] = molecular target: Nidogen-1 (human) (UniProt P14543); experiment: as above
HSP70 [4] = molecular target: HSP70 (UniProt P0DMV8); experiment: ELISA, plate coated with HSP70
[5] = molecular target: Heat shock 70 kDa protein 6/7 (human) (UniProt P17066); experiment: IP from HDF supernatant, LFQ mass spectrometry; ratio against the glycosylation mutant
Nidogen-1 (human) [6] = molecular target: Nidogen-1 (human) (UniProt P14543); experiment: as above
HSP70 [7] = molecular target: HSP70 (UniProt P0DMV8); experiment: ELISA, plate coated with HSP70, bound protein detected with peroxidase-conjugated anti-human antibody

Sequence of Nidogen-1 (human) (P14543 29-1247 limits assumed): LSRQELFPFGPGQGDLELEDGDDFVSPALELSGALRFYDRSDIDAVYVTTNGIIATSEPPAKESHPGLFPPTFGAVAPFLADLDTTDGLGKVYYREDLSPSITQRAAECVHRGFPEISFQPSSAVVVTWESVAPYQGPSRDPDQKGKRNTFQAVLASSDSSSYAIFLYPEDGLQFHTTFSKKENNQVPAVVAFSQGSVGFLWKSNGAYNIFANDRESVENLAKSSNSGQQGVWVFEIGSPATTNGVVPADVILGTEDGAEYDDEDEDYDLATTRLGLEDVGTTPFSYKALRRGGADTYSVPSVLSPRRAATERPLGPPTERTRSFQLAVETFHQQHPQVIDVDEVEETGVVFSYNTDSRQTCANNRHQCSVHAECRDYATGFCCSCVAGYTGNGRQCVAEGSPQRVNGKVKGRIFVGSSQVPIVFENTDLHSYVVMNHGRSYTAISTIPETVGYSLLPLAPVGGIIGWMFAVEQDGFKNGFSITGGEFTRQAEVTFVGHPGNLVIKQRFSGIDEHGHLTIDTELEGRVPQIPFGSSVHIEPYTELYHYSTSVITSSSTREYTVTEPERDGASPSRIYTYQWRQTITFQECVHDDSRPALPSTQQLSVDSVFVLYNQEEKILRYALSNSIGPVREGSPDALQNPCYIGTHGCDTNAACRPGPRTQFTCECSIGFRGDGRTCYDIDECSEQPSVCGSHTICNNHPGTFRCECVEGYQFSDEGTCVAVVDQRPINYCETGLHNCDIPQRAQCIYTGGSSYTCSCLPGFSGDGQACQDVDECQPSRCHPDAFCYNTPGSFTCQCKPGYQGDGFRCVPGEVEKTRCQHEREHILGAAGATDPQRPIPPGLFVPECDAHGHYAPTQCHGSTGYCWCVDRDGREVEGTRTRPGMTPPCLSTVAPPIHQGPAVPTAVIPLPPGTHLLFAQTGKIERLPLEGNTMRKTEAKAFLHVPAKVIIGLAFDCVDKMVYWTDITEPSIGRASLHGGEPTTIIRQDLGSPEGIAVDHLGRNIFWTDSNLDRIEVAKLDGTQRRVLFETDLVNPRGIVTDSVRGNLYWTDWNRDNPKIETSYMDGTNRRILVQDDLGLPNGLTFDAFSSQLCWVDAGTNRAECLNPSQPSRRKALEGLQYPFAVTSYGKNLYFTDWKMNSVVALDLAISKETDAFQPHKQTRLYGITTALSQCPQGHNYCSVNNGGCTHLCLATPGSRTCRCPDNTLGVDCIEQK
Sequence of Heat shock 70 kDa protein 6/7 (human) (P17066 whole entry): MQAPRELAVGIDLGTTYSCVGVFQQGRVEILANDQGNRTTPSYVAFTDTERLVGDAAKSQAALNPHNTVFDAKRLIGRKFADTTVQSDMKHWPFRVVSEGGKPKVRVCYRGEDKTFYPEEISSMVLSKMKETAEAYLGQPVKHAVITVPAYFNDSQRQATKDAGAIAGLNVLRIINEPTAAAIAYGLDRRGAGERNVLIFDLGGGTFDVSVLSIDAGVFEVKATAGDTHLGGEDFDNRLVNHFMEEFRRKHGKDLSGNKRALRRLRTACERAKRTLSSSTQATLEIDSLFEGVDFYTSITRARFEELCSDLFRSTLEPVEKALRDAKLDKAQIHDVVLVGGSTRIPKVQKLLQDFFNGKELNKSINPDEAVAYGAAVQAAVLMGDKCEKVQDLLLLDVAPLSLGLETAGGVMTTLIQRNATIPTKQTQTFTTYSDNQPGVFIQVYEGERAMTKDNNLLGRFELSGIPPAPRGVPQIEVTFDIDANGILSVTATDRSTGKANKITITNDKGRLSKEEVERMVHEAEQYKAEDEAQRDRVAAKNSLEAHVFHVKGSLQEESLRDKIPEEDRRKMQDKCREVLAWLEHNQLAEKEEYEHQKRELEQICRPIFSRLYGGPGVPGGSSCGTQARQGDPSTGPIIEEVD
Sequence of HSP70 (P0DMV8 whole entry): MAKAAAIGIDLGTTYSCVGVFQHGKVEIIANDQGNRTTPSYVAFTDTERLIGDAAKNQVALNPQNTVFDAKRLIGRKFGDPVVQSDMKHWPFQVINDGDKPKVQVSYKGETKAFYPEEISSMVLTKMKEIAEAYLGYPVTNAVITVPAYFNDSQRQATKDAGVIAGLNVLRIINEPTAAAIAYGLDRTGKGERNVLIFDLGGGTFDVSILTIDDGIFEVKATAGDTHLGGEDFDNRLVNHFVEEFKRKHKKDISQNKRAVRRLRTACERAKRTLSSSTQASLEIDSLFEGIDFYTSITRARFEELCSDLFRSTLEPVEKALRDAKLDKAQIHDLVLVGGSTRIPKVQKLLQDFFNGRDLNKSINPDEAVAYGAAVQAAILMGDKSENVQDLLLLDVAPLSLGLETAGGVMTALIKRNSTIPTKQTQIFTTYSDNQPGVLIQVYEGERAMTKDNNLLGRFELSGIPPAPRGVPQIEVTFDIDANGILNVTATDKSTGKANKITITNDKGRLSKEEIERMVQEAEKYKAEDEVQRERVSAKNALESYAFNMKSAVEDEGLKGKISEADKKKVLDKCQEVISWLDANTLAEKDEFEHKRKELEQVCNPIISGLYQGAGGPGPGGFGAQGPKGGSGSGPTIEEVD

## HSP70 (from UniProt P0DMV8 1-641)
[1]
  Median RFU: 130 RFU

## Fc-LPD N346, 362, 409Q (from UniProt P28300 22-169) (Fc fusion)
[2]
  Ratio Fc-LPD-N346, 409, 456Q:Fc: 194
Nidogen-1 (human) [3]
  Ratio Fc-LPD-N346, 409, 456Q:Fc: 13.7

## Fc-LPD (lysyl oxidase prodomain fused to Fc antibody fragment) (Fc fusion)
HSP70 [4]
  EC50: 41 nM
[5]
  Ratio Fc-LPD:Fc-LPDN346, 409, 456Q: 0.4
Nidogen-1 (human) [6]
  Ratio Fc-LPD:Fc-LPDN346, 409, 456Q: 0.7
[2]
  Ratio Fc-LPD:Fc: 78.4
Nidogen-1 (human) [3]
  Ratio Fc-LPD:Fc: 9
HSP70 [7]
  EC50: 41 nM
